This passage reports raw mean rupture force results from publication PMC5541836.

This test deals with Wild-type spindle pole bodies (SPBs) purified from budding yeast (strain BGY72-8A: Spc97-TAP, Spc42-mCherry) (budding yeast) (UniProt P38863). Briefly: laser trap rupture force.
Wild-type spindle pole bodies (SPBs) purified from budding yeast (strain BGY72-8A: Spc97-TAP, Spc42-mCherry) (budding yeast), sequence (P38863 whole entry, looked up): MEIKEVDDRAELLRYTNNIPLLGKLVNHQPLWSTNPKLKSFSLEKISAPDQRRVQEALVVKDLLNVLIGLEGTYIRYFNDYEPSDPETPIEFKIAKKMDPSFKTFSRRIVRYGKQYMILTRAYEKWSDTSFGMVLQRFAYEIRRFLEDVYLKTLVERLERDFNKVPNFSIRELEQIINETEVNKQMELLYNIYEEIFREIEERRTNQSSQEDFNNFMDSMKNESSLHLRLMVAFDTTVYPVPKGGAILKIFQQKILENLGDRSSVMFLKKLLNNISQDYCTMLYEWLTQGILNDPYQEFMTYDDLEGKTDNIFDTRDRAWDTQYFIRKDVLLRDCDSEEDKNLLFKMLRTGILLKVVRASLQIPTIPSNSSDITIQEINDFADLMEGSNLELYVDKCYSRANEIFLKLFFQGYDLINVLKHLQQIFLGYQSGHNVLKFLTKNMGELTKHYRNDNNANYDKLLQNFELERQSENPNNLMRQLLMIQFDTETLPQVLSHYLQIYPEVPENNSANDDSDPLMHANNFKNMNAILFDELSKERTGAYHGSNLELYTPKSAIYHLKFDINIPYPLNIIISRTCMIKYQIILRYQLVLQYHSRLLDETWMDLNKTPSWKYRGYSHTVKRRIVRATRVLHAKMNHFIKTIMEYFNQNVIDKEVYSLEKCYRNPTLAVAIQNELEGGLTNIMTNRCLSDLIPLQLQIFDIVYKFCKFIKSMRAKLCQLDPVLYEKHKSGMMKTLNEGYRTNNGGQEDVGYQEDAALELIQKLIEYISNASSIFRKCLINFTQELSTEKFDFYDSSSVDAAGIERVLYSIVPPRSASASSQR

Microtubules assembled from bovine brain tubulin, sequence (Q6B856 whole entry, looked up): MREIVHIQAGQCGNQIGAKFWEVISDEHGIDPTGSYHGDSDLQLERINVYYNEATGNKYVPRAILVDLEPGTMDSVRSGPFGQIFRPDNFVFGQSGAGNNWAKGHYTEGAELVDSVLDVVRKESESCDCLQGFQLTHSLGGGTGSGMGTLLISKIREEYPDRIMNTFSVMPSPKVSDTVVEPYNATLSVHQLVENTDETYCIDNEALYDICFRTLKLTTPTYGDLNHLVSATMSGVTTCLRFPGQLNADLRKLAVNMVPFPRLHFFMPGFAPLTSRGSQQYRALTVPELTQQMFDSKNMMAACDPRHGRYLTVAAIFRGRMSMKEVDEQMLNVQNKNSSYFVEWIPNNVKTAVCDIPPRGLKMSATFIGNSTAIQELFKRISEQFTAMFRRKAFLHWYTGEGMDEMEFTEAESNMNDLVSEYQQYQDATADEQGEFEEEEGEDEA

In the case of “Microtubules assembled from bovine brain tubulin (from UniProt Q6B856 1-445) (complex)”, the raw mean rupture force was determined as 45 pN.
